Data from patent US20220088117.

System: T1, Serp-1 (myxomavirus-derived serine protease inhibitor)
T1 sequence: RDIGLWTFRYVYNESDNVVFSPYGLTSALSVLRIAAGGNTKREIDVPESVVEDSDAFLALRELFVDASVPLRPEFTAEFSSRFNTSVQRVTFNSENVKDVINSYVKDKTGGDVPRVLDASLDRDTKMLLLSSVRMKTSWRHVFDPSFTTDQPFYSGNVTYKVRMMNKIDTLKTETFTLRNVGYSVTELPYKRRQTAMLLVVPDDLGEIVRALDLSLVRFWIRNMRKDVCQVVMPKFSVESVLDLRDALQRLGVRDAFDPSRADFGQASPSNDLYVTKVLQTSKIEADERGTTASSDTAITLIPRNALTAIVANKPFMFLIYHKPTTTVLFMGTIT

Substance: urokinase-type plasminogen activator (uPA)
- uPA activity in an in vitro substrate conversion assay: Serp-1 inhibition of uPA activity in an in vitro substrate conversion assay is not affected by the presence of a broad-spectrum antibiotic cocktail
